Experimental data taken from the supplement of paper PMC7877785.
± gives the uncertainty stated by the source.

Assay: self-splicing fitness, log relative to wild type (ln ratio); higher = more splicing; Tetrahymena group I intron in knt gene, E. coli kanamycin selection, DiMSum; sequences stand for … in CUCUCU…GGAGGGAAAAGUUAUCAGGCAUGCACCUGGUAGCUAGUCUUUAAACCAAUAGAUUGCAUCGGUUUAAAAGGCAAGACCGUCAAAUUGCGGGAAAGGGGUCAACAGCCGUUCAGUACCAAGUCUCAGGGGAAACUUUGAGAUGGCCUUGCAAAGGGUAUGGUAAUAAGCUGACGGACAUGGUCCUAACCACGCAGCCAAGUCCUAAGUCAACAGAUCUUCUGUUGAUAUGGAUGCAGUUCACAGACUAAAUGUCGGUCGGGGAAGAUGUAUUCUUCUCAUAAGAUAUAGUCGGACCUCUCCUUAAUGGGAGCUAGCGGAUGAAGUGAUGCAACACUGGAGCCGCUGGGAACUAAUUUGUAUGCGAAAGUAUAUUGAUUAGUUUUGGAGUACUCGUGGUCG
Outline: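 Fitness was computed with DiMSum as the error-weighted combination of replicate fold changes, kanamycin versus none, each normalised to wild type. The library randomised all eight intron nucleotides of the P1ex region, with the intron placed in the knt kanamycin-resistance gene on pET-22b(+) in E. coli BL21(DE3). Six replicate transformations were grown overnight at 37°C or 30°C on LB agar with or without 25 μg/mL kanamycin, plus 100 μg/mL carbenicillin, 50 μM IPTG and 0.2% rhamnose. Pooled colonies were amplicon-sequenced on an Illumina HiSeq 2500.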

Sequence	self-splicing fitness (ln) (30 °C)	self-splicing fitness (ln) (37 °C)
ACUUAGCAAUAUUACGUUCG	-1.52 ± 0.18	-0.802 ± 0.18
GGCCAGCAAUAUUACGAAGU	-2.41 ± 0.39	-1.26 ± 0.26
UUUUAGCAAUAUUACGUGAG	-0.331 ± 0.12	-0.445 ± 0.22
GGAGAGCAAUAUUACGAGGC	-2.83 ± 0.23	-1.95 ± 0.37
UGGCAGCAAUAUUACGCCUG	-1.24 ± 0.097	-0.681 ± 0.13
AUGCAGCAAUAUUACGUAAA	-1.44 ± 0.092	-1.14 ± 0.13
CAAUAGCAAUAUUACGCUCG	-0.561 ± 0.074	-0.204 ± 0.092
GUGCAGCAAUAUUACGGACC	-0.711 ± 0.31	–
UCACAGCAAUAUUACGAACG	-1.61 ± 0.18	-1.19 ± 0.21
GCACAGCAAUAUUACGGCGG	-3.29 ± 0.19	-2.78 ± 0.25
CACUAGCAAUAUUACGGCAG	-0.257 ± 0.049	0.189 ± 0.066
GGACAGCAAUAUUACGCGAU	-2.52 ± 0.17	-2.52 ± 0.17
UUAUAGCAAUAUUACGCGAG	-0.842 ± 0.11	-0.334 ± 0.12
AGCUAGCAAUAUUACGGACA	-1.06 ± 0.12	0.0203 ± 0.15
UUAGAGCAAUAUUACGUGGG	-3.41 ± 0.22	-1.92 ± 0.17
GUCGAGCAAUAUUACGCCAA	-2.68 ± 0.35	-2.6 ± 0.48
GCCGAGCAAUAUUACGACGC	-2.86 ± 0.23	-1.08 ± 0.21
CGUCAGCAAUAUUACGCCGC	-2.76 ± 0.32	-1.05 ± 0.27
AGUGAGCAAUAUUACGAAUG	-3.4 ± 0.36	-1.58 ± 0.3
CUUAAGCAAUAUUACGGUGG	-1.7 ± 0.092	-0.937 ± 0.1
UUAAAGCAAUAUUACGGCCC	-1.67 ± 0.17	0.305 ± 0.23
CAUGAGCAAUAUUACGGUGU	-4.27 ± 0.28	-2.54 ± 0.23
CUUGAGCAAUAUUACGGCAC	-2.5 ± 0.34	-2.71 ± 0.39
UUUAAGCAAUAUUACGUUCU	-1.53 ± 0.11	-0.963 ± 0.11
CUACAGCAAUAUUACGGUGU	-3.23 ± 0.13	-2.49 ± 0.14
AGAAAGCAAUAUUACGUUAC	-3.26 ± 0.19	-1.89 ± 0.18

Sequence	self-splicing fitness (ln) (30 °C)	self-splicing fitness (ln) (37 °C)
AUGUAGCAAUAUUACGGCCC	-0.72 ± 0.34	-0.359 ± 0.25
GACCAGCAAUAUUACGGUCC	-2.95 ± 0.17	–
AGAGAGCAAUAUUACGUACU	-1.2 ± 0.13	-1 ± 0.15
UAGUAGCAAUAUUACGAAGU	-2.42 ± 0.24	-2.07 ± 0.33
CCCUAGCAAUAUUACGUAAG	-3.8 ± 0.18	-2.04 ± 0.17
CUACAGCAAUAUUACGCGCA	-3.72 ± 0.22	-2.12 ± 0.19
AGGGAGCAAUAUUACGGGCA	-3.79 ± 0.43	-1.46 ± 0.34
UUUCAGCAAUAUUACGCUGG	-3.94 ± 0.3	-1.77 ± 0.33
UAUAAGCAAUAUUACGCGGG	-2.17 ± 0.14	-1.89 ± 0.18
GGCGAGCAAUAUUACGGCGG	-2 ± 0.39	-1.28 ± 0.37
AUAAAGCAAUAUUACGACUA	0.277 ± 0.083	0.129 ± 0.1
CAUCAGCAAUAUUACGUGCU	-3.71 ± 0.28	-2.46 ± 0.21
CAGUAGCAAUAUUACGUCGG	-0.645 ± 0.078	-0.0434 ± 0.1
UGUAAGCAAUAUUACGUAGG	-1.71 ± 0.15	-0.712 ± 0.2
AGCGAGCAAUAUUACGCUGC	-1.51 ± 0.39	-2.23 ± 0.42
CGAUAGCAAUAUUACGGUCA	-0.212 ± 0.057	0.228 ± 0.065
AGUAAGCAAUAUUACGUGUA	-2.16 ± 0.12	-1.8 ± 0.13
CCAUAGCAAUAUUACGCACA	-3.14 ± 0.28	-1.45 ± 0.27
CAAAAGCAAUAUUACGAAGG	-1.87 ± 0.11	-0.758 ± 0.13
UGUUAGCAAUAUUACGACUU	-0.357 ± 0.11	0.12 ± 0.12
AAUGAGCAAUAUUACGAUCA	–	-2.46 ± 0.31
ACACAGCAAUAUUACGGCAC	-1.6 ± 0.066	-0.725 ± 0.084
UGCGAGCAAUAUUACGGUUC	-2.75 ± 0.28	–
GGUCAGCAAUAUUACGACAA	-0.264 ± 0.062	0.179 ± 0.093
UACCAGCAAUAUUACGAACG	-0.468 ± 0.063	-0.562 ± 0.07
AUGAAGCAAUAUUACGUCAA	-0.911 ± 0.064	-0.148 ± 0.076

Sequence	self-splicing fitness (ln) (30 °C)	self-splicing fitness (ln) (37 °C)
UGUAAGCAAUAUUACGACAA	-0.378 ± 0.16	-0.666 ± 0.14
CCCCAGCAAUAUUACGACAU	-3.936 ± 0.02	-2.94 ± 0.037
ACAGAGCAAUAUUACGAACC	–	-1.67 ± 0.49
UAAGAGCAAUAUUACGUCCC	-3.99 ± 0.42	–
CUCCAGCAAUAUUACGUAUA	-3.54 ± 0.23	-0.63 ± 0.16
UAUGAGCAAUAUUACGGUCA	-2.22 ± 0.25	-1.65 ± 0.25
CCGGAGCAAUAUUACGCUUA	-2.45 ± 0.24	-3.19 ± 0.35
CCCUAGCAAUAUUACGCGAC	-4.32 ± 0.36	-2.67 ± 0.33
UGACAGCAAUAUUACGAACC	-2.97 ± 0.25	-1.37 ± 0.22
AAUCAGCAAUAUUACGUUUC	-2.83 ± 0.14	-1.2 ± 0.13
UCUCAGCAAUAUUACGAUCG	-1.29 ± 0.12	-0.618 ± 0.15
CUCUAGCAAUAUUACGCCGU	-2.12 ± 0.27	-3.98 ± 0.39
AUUCAGCAAUAUUACGGAGU	-4.52 ± 0.34	-2.3 ± 0.23
AGACAGCAAUAUUACGAUGA	-2.02 ± 0.12	-0.531 ± 0.094
GAGUAGCAAUAUUACGCCGC	-2.89 ± 0.25	-1.29 ± 0.33
GAUAAGCAAUAUUACGUUAA	-3.91 ± 0.43	-1.52 ± 0.17
CAUGAGCAAUAUUACGCGUG	-4.92 ± 0.36	-2.71 ± 0.26
UUAGAGCAAUAUUACGUUAG	-0.978 ± 0.13	0.238 ± 0.21
UCUCAGCAAUAUUACGUAUA	-2.86 ± 0.17	-1.32 ± 0.13
GUGUAGCAAUAUUACGGAUC	-1.04 ± 0.13	0.406 ± 0.17
UGGAAGCAAUAUUACGAGAA	-2.05 ± 0.43	-1.73 ± 0.3
GUCAAGCAAUAUUACGGUAG	-3.35 ± 0.18	-4.66 ± 0.38
GAGUAGCAAUAUUACGCCGU	–	-1.08 ± 0.27
GUCGAGCAAUAUUACGAACA	-1.67 ± 0.37	-0.344 ± 0.29
GUACAGCAAUAUUACGGAUA	-2.46 ± 0.12	-2.36 ± 0.14
GUAAAGCAAUAUUACGUCGG	-2.85 ± 0.12	-1.05 ± 0.13
